Data on 1 molecule can be found in patent publication US20060210568A1, “Methods and compositions for cancer treatment” (priority 2003, published 2006).

What all share (format): cell-based, human
Experiment [1] has as its system MCF-7 cells. Put plainly: Oil Red O staining of lipid droplets. The note with it: ADRP overexpressing versus EV MCF-7 cells, FIG. 4B. As for the experimental part: This is also supported by the fact that ADRP overexpressing cells accumulated lipid droplets at a higher level (higher number of droplets per cells and higher number of cells having droplets than the empty vector control MCF-7 cells as shown in FIG. 4A and FIG. 4B. A 5-fold increase in lipid droplets accumulation was observed (FIG. 4B). Specifically, cells were plated at the concentration of 2×10^5 per 35-mm dish in 5% FBS DMEM/F12. After 48 h of incubation, cells were washed once with PBS and fixed in 4% formalin for 30 min. Oil Red O working solution was added to cover all the cells, and the cells were incubated at 37° C. for 1 h. The Working Solution was prepared by mixing 6 ml 0.5% Oil Red O in isopropanol with 4 ml H2O, and centrifuging at 4000 g for 10 min to remove sediments. The plates were washed with tap water twice. Cells were counterstained by Hematoxylin QS (Vector Laboratories, California) for 45 sec, and washed with tap water.

The test system of experiment [2] is beta casein expression in MCF-7 cells. Nature of the experiment: beta casein expression by RT-PCR as marker of breast cancer cell differentiation. The note with it: versus control cells with no detectable level, FIG. 3A. An excerpt:
We then explored whether growth inhibition of cells overexpressing ADRP was accompanied by stimulated differentiation of the cells. In order to investigate this possibility, we measured the expression of markers of differentiation such as beta casein in the ADRP expressing cells when compared to EV cells. Beta casein is routinely used as a marker of mammary epithelial cell differentiation. We show by RT-PCR that the ADRP overexpressing cells express high level of casein mRNA. In contrast, the control cells had no detectable level of the gene product (see FIG. 3A). In FIG. 3A, GAPDH (Glyceraldehyde-3-phosphate dehydrogenase) loading was used as an internal control for equal sample mRNA expression. […] Measurement of Beta casein expression as marker of breast cancer cell differentiation was by RT-PCR as described above.

In another experiment the test system is bcl-2. Nature of the experiment: bcl-2 expression in ADRP MCF-7 versus control MCF-7 cells. The settings on record: ADRP overexpressing versus empty vector control cells, FIG. 5. An excerpt: This is shown by down-regulation of bcl-2 in ADRP MCF-7 cells when compared to control MCF-7 cells. […] In other words, ADRP overexpression sensitizes the cells to apoptotic stimuli.

The subject of experiment [3] is ADRP overexpressing cells (MCF7-C4). Put plainly: proliferation assay, ADRP overexpressing MCF-7 cells. The settings on record: serum containing medium, with or without hormones and growth factors, FIGS. 1 and 2. On the procedure:
The vector used to over-express ADRP in MCF-7 cells is the ADRP-pcDNA3 vector described in Gao and Serrero, 1999. The G418 resistance gene was used as selectable marker. MCF-7 cells were transfected with the ADRP-pcDNA3 plasmid, using the lipofectamine method. Specifically, MCF-7 cells (WT) were plated onto 60-mm dish at the concentration of 2×10^5 cell per plate in 5% fetal bovine serum (FBS) in DMEM/F12 (1:1 mixture of Dulbecco's modified Eagle's medium and Ham' nutrient F12 medium) overnight before transfection. Cells were washed once with serum-free DMEM/F12 (without antibiotic). The lipofectamine method was used for the transfection. Specifically, 2 μg mouse ADRP pcDNA3 construct was used. Transfection was carried on according to manufacturer's recommendations, with 15 μl of lipofectamine and 5 hours of incubation. After transfection, the medium was replaced with 5% FBS DMEM/F12 and the cells were incubated overnight. G418 at the concentration of 800 μg/ml was added the day after for selection. Cells were selected with this medium for 3 weeks. Six clones were isolated and subjected to RT-PCR to determine the existence of the transfection construct. […] Cell numbers were counted by hemacytometer every two days. […]

The subject of experiment [4] is MCF-7 cells. Put plainly: FACS analysis of apoptosis and G1 phase. The settings on record: ADRP-MCF-7 versus EV-MCF-7 cells. From the text: Increased of percentage of cells in apoptosis and in G1 phase is shown by FACS analysis of ADRP-MCF-7 cells and EV-MCF-7 cells.
(In general: Flow cytometry measures light scatter and fluorescence of single cells or particles in a stream.)

“Also recorded” adds a separate entry of the source.

B1: ADRP: 50-kDa adipose differentiation related protein, over-expressed in MCF-7 cells by transfection with mouse ADRP pcDNA3 construct (protein, UniProt P43883 2-425, looked up)
Perilipin-2: AAAVVDPQQSVVMRVANLPLVSSTYDLVSSAYVSTKDQYPYLRSVCEMAEKGVKTVTSAAMTSALPIIQKLEPQIAVANTYACKGLDRMEERLPILNQPTSEIVASARGAVTGAKDVVTTTMAGAKDSVASTVSGVVDKTKGAVTGSVERTKSVVNGSINTVLGMVQFMNSGVDNAITKSELLVDQYFPLTQEELEMEAKKVEGFDMVQKPSNYERLESLSTKLCSRAYHQALSRVKEAKQKSQETISQLHSTVHLIEFARKNMHSANQKIQGAQDKLYVSWVEWKRSIGYDDTDESHCVEHIESRTLAIARNLTQQLQTTCQTVLVNAQGLPQNIQDQAKHLGVMAGDIYSVFRNAASFKEVSDGVLTSSKGQLQKMKESLDEVMDYFVNNTPLNWLVGPFYPQSTEVNKASLKVQQSEVKAQ
modifications: expressed from pcDNA3
notes: 50-kDa adipose differentiation related protein, over-expressed in MCF-7 cells by transfection with mouse ADRP pcDNA3 construct
In the case of B1, the “increase in lipid droplets accumulation” value in the experiment with MCF-7 cells [1] is on record as roughly 5 fold. In experiment [2], the “casein mRNA expression in ADRP overexpressing cells” value is “stimulation of casein expression; also recorded: high level”. The Bcl-2 expression entry with bcl-2 was “dramatically decreased; also recorded: much lower level”. Besides, in experiment [3], the “growth of cells over-expressing ADRP” value is “grow very slowly”. Also, in the experiment on MCF-7 cells [4], the “percentage of cells in apoptosis and in G1 phase” value is “Increased”.
